{
  "source": "patent US8609357B2",
  "about": "“Methods for detecting LP-PLA2 activity and inhibition of LP-PLA2 activity” (Glaxo Group Limited, priority 2004, dated 2013)",
  "key": {"[1]": {"assay": "Plasma level of inhibitor in clinical studies (pharmacokinetics)", "conditions": "human subjects, administered in vivo"}, "[2]": {"biological_target": "T1, Lp-PLA2 (Homo sapiens, UniProt Q13093)", "T1 construct": "Unless otherwise indicated all plasma samples were collected from human and are human plasma; from tissue; host or cells: human blood plasma (EDTA)", "T1 sequence (Q13093 22-441)": "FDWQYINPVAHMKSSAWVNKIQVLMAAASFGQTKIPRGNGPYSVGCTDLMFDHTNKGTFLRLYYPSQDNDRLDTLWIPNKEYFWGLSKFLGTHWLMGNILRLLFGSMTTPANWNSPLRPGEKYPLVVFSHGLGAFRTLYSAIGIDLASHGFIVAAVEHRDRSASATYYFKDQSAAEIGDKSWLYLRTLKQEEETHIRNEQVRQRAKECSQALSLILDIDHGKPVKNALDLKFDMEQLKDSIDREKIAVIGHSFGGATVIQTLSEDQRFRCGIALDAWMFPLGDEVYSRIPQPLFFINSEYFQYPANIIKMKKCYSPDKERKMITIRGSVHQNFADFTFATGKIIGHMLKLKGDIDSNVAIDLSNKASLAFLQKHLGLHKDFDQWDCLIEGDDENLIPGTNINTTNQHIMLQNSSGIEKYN", "assay": "Auto PAF AH assay (Azwell kit, Olympus Au640)", "type": "biochemical", "protocol": "The Auto PAF AH assay kit, manufactured by Azwell (Osaka, Japan), is commercially available in the United States through Karlan Research Products Corporation (Santa Rosa, Calif.).\nAzwell Auto PAF-AH Assay Kit:\nPrepare the following reagents: • R1: Use this buffer solution as supplied in Azwell Auto PAF AH assay kit. Store at 4° C. Protect from light. • R2: Prepare the R2 working solution by mixing R2A and R2B (supplied in Azwell Auto PAF AH assay kit) in the proportion of 19:1. Store at 4° C. Protect from light. • 3. […] Briefly centrifuge to spin down fibrin clots/particles in the plasma. • 4. Place Sarstedt tubes containing plasma samples onto sample tubes that fit the instrument. Run plasma samples through the Au640 analyzer. After choosing the PAF AH assay program, the analytical procedure described below is performed automatically: • Test sample (2 μL)+R1 (240 μL), 37° C., 5 minutes [0-5 minutes] • Add R2 (80 μL), 37° C., 5 minutes [5-10 minutes] • Measure the absorbance at 410 nm and 480 nm [6-8 minutes] • Calculate PAF AH activity (IU/L) • 5."}, "[3]": {"biological_target": "T2, recombinant human Lp-PLA2 protein (hrLp-PLA2) (Homo sapiens, UniProt Q13093)", "T2 construct": "made in house", "T2 sequence (Q13093 22-441)": "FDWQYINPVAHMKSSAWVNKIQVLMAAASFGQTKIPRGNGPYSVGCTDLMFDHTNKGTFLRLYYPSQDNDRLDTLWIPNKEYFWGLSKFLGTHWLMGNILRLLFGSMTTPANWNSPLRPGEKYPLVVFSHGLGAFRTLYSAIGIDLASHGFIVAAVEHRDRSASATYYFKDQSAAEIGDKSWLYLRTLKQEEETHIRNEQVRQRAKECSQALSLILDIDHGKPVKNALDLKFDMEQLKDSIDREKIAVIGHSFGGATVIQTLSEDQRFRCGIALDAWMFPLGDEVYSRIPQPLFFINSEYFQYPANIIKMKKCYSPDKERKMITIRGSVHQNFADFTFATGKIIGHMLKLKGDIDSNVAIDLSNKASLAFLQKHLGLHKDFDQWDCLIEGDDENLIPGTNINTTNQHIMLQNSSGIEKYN", "assay": "Modified colorimetric assay of recombinant human Lp-PLA2 protein (dynamic range)", "type": "biochemical", "conditions": "for Activity (assay dynamic range): hrLp-PLA2 14.6-3750 ng/ml, […] substrate/45 μL", "protocol": "(§1) Assay dynamic range was defined by using both recombinant human Lp-PLA2 protein (hrLp-PLA2) generated in-house and Lp-PLA2 protein purified from human plasma in-house.\nhrLp-PLA2 was serially diluted and 25 μL of each diluted hrLp-PLA2 were assayed by a modified drug-sensitive colorimetric assay (data shown in Table 10). […]. (see Table 10).\n[…]. Therefore, such conditions with lower substrate concentration and higher sample volume could be used when higher measurable in vivo inhibition is desired while the range of Lp-PLA2 activity for test samples is limited or could be compromised. […]. Earlier and shorter reaction time could be considered to use in activity calculation to improve assay dynamic range when such conditions are used."}, "[4]": {"biological_target": "T3, hLp-PLA2 purified from plasma (Homo sapiens, UniProt Q13093)", "T3 construct": "Lp-PLA2 protein purified from human plasma in-house; from tissue; host or cells: human plasma, purified in-house", "T3 sequence (Q13093 22-441)": "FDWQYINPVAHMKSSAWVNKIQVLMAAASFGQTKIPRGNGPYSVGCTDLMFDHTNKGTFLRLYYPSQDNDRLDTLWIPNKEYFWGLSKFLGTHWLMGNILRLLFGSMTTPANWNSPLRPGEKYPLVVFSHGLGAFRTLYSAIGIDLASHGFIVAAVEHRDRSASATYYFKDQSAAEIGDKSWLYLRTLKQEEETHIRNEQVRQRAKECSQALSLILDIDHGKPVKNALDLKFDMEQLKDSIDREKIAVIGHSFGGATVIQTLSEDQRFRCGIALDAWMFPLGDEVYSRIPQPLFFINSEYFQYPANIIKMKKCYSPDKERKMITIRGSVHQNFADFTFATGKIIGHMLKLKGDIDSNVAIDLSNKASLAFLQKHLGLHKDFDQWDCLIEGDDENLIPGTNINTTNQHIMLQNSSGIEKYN", "assay": "Modified colorimetric assay of Lp-PLA2 purified from human plasma (dynamic range)", "type": "biochemical", "protocol": "as §1\nhLp-PLA2 purified from plasma was also serially diluted and 25 pt of each dilution were assayed by a modified drug-sensitive colorimetric assay (data shown in Table 11). […] The relatively lower upper limit of the dynamic range determined by purified hLp-PLA2 may be resulted from interference factors possibly present in the purified product and/or introduced during purification process. Limited availability of such purified protein prevents further investigation."}},
  "note": "“And” between values parts separate entries of the source, which are not always exact repeats. Equal values may be shown once.",
  "data": [
    {"molecule": "CCN(CC)CCN(Cc1ccc(-c2ccc(C(F)(F)F)cc2)cc1)C(=O)Cn1c(SCc2ccc(F)cc2)nc(=O)c2c1CCC2", "note": "[Formula II, 1-(N-(2-(Diethylamino)ethyl)-N-(4-(4-trifluoromethylphenyl)benzyl)-aminocarbonylmethyl)-2-(4-fluorobenzyl)thio-5,6-trimethylenepyrimidin-4-one bitartrate]", "values": [
      {"measurement": "peak plasma level", "setting": "[1]", "value": 90, "unit": "ng/mL"}
    ]},
    {"molecule": "COCCN1CCC(N(Cc2ccc(-c3ccc(C(F)(F)F)cc3)cc2)C(=O)Cn2c(SCc3cccc(F)c3F)cc(=O)c3ccccc32)CC1", "note": "[Formula I]", "values": [
      {"measurement": "drug inhibition by Auto PAF AH assay", "setting": "[2]; four subjects, 80-240 mg in vivo", "value": "failed to indicate drug inhibition"},
      {"measurement": "Lp-PLA2 inhibition measured by Auto PAF AH assay", "setting": "[2]; six drug-treated human subjects, 120-240 mg in vivo", "value": "not apparent"}
    ]},
    {"molecule": "CCCCCCCCCCCCCC(=O)OCC(COP(=O)([O-])OCC[N+](C)(C)C)OC(=O)CCC(=O)Oc1ccc([N+](=O)[O-])cc1", "note": "(stereo not shown) [substrate, reference compound]", "values": [
      {"measurement": "Km", "setting": "[2]; plasma as the enzyme source, Auto PAF AH protocol", "value": "~200 µM and 200 µM"}
    ]},
    {"molecule": "hrLp-PLA2: recombinant human Lp-PLA2 protein generated in-house (protein, UniProt Q13093 22-441, looked up) Platelet-activating factor …: FDWQYINPVAHMKSSAWVNKIQVLMAAASFGQTKIPRGNGPYSVGCTDLMFDHTNKGTFLRLYYPSQDNDRLDTLWIPNKEYFWGLSKFLGTHWLMGNILRLLFGSMTTPANWNSPLRPGEKYPLVVFSHGLGAFRTLYSAIGIDLASHGFIVAAVEHRDRSASATYYFKDQSAAEIGDKSWLYLRTLKQEEETHIRNEQVRQRAKECSQALSLILDIDHGKPVKNALDLKFDMEQLKDSIDREKIAVIGHSFGGATVIQTLSEDQRFRCGIALDAWMFPLGDEVYSRIPQPLFFINSEYFQYPANIIKMKKCYSPDKERKMITIRGSVHQNFADFTFATGKIIGHMLKLKGDIDSNVAIDLSNKASLAFLQKHLGLHKDFDQWDCLIEGDDENLIPGTNINTTNQHIMLQNSSGIEKYN", "values": [
      {"measurement": "Activity", "setting": "[3]; hrLp-PLA2 4.88 ng/mL, […] Substrate/45 μL", "value": 2.71, "unit": "nmol/min/mL"},
      {"measurement": "Activity", "setting": "[3]; hrLp-PLA2 9.77 ng/mL, […] Substrate/45 μL", "value": 5.13, "unit": "nmol/min/mL"},
      {"measurement": "Activity", "setting": "[3]; hrLp-PLA2 19.53 ng/mL, […] Substrate/45 μL", "value": 9.27, "unit": "nmol/min/mL"},
      {"measurement": "Activity", "setting": "[3]; hrLp-PLA2 39.06 ng/mL, […] Substrate/45 μL", "value": 17.81, "unit": "nmol/min/mL"},
      {"measurement": "Activity", "setting": "[3]; hrLp-PLA2 78.13 ng/mL, […] Substrate/45 μL", "value": 30.16, "unit": "nmol/min/mL"},
      {"measurement": "Activity", "setting": "[3]; hrLp-PLA2 156.25 ng/mL, […] Substrate/45 μL", "value": 51.62, "unit": "nmol/min/mL"},
      {"measurement": "Activity", "setting": "[3]; hrLp-PLA2 312.50 ng/mL, […] Substrate/45 μL", "value": 84.14, "unit": "nmol/min/mL"},
      {"measurement": "Activity", "setting": "[3]; hrLp-PLA2 625.00 ng/mL, […] Substrate/45 μL", "value": 109.44, "unit": "nmol/min/mL"},
      {"measurement": "Activity", "setting": "[3]; hrLp-PLA2 1250.00 ng/mL, […] Substrate/45 μL", "value": 93.90, "unit": "nmol/min/mL"},
      {"measurement": "Activity", "setting": "[3]; hrLp-PLA2 1650 ng/ml, 25 uL assayed", "value": 30.0, "unit": "nmol/min/mL"},
      {"measurement": "Activity", "setting": "[3]; hrLp-PLA2 3300 ng/ml, 25 uL assayed", "value": 69.7, "unit": "nmol/min/mL"},
      {"measurement": "Activity", "setting": "[3]; hrLp-PLA2 6600 ng/ml, 25 uL assayed", "value": 169.0, "unit": "nmol/min/mL"},
      {"measurement": "Activity", "setting": "[3]; hrLp-PLA2 14666 ng/ml, 25 uL assayed", "value": 413.7, "unit": "nmol/min/mL"},
      {"measurement": "Activity (assay dynamic range)", "setting": "[3]; reaction time used for calculation 30 sec-0", "value": "3.4 to 210", "unit": "nmol/min/mL"},
      {"measurement": "Activity (assay dynamic range)", "setting": "[3]; reaction time used for calculation 1 min-0", "value": "3.2 to 196.5", "unit": "nmol/min/mL"}
    ]},
    {"molecule": "Purified hLp-PLA2 (protein, UniProt Q13093 22-441, looked up) Platelet-activating factor …: FDWQYINPVAHMKSSAWVNKIQVLMAAASFGQTKIPRGNGPYSVGCTDLMFDHTNKGTFLRLYYPSQDNDRLDTLWIPNKEYFWGLSKFLGTHWLMGNILRLLFGSMTTPANWNSPLRPGEKYPLVVFSHGLGAFRTLYSAIGIDLASHGFIVAAVEHRDRSASATYYFKDQSAAEIGDKSWLYLRTLKQEEETHIRNEQVRQRAKECSQALSLILDIDHGKPVKNALDLKFDMEQLKDSIDREKIAVIGHSFGGATVIQTLSEDQRFRCGIALDAWMFPLGDEVYSRIPQPLFFINSEYFQYPANIIKMKKCYSPDKERKMITIRGSVHQNFADFTFATGKIIGHMLKLKGDIDSNVAIDLSNKASLAFLQKHLGLHKDFDQWDCLIEGDDENLIPGTNINTTNQHIMLQNSSGIEKYN", "values": [
      {"measurement": "Activity", "setting": "[4]; Purified hLp-PLA2 6.25 ng/ml", "value": 2.47, "unit": "nmol/min/mL"},
      {"measurement": "Activity", "setting": "[4]; Purified hLp-PLA2 12.50 ng/ml", "value": 5.06, "unit": "nmol/min/mL"},
      {"measurement": "Activity", "setting": "[4]; Purified hLp-PLA2 50.00 ng/ml", "value": 25.68, "unit": "nmol/min/mL"},
      {"measurement": "Activity", "setting": "[4]; Purified hLp-PLA2 100.00 ng/ml", "value": 54.34, "unit": "nmol/min/mL"},
      {"measurement": "Activity", "setting": "[4]; Purified hLp-PLA2 200.00 ng/ml", "value": 119.34, "unit": "nmol/min/mL"},
      {"measurement": "Activity", "setting": "[4]; Purified hLp-PLA2 400.00 ng/ml", "value": 212.95, "unit": "nmol/min/mL"},
      {"measurement": "Activity", "setting": "[4]; Purified hLp-PLA2 600.00 ng/ml", "value": 273.60, "unit": "nmol/min/mL"},
      {"measurement": "Activity", "setting": "[4]; Purified hLp-PLA2 800.00 ng/ml", "value": 324.85, "unit": "nmol/min/mL"},
      {"measurement": "Activity", "setting": "[4]; Purified hLp-PLA2 1000.00 ng/ml", "value": 338.51, "unit": "nmol/min/mL"}
    ]}
  ]
}
